Results on three molecules are retold here after paper PMC8241838 (2021).

Assay in all cases: FACS
For orientation: A flow cytometer gives signals particle by particle.

Test [1] has as its target α6β1 integrin on Expi293F cells, α6 D153A (human, UniProt P05556 21-798).
Test [2] has as its target α6β1 integrin on Expi293F cells, α6 E221A (human, UniProt P05556 21-798).
Test [3] addresses α6β1 integrin on Expi293F cells, α6 E219A (human, UniProt P05556 21-798).
Test [4] addresses α6β1 integrin on Expi293F cells, α6 D205A (human, UniProt P05556 21-798).
The target of test [5] is α6β1 integrin on Expi293F cells, α6 R157A (human, UniProt P05556 21-798).
Test [6] has as its target α6β1 integrin on Expi293F cells, α6 X1-ΔC (human, UniProt P05556 21-798).
Test [7] deals with human α6β1 integrin transiently expressed on Expi293F cells, wild type (human, UniProt P05556 21-798).
human α6β1 integrin transiently expressed on Expi293F cells, wild type, sequence (chain, as listed by the source, chain 1 of 2): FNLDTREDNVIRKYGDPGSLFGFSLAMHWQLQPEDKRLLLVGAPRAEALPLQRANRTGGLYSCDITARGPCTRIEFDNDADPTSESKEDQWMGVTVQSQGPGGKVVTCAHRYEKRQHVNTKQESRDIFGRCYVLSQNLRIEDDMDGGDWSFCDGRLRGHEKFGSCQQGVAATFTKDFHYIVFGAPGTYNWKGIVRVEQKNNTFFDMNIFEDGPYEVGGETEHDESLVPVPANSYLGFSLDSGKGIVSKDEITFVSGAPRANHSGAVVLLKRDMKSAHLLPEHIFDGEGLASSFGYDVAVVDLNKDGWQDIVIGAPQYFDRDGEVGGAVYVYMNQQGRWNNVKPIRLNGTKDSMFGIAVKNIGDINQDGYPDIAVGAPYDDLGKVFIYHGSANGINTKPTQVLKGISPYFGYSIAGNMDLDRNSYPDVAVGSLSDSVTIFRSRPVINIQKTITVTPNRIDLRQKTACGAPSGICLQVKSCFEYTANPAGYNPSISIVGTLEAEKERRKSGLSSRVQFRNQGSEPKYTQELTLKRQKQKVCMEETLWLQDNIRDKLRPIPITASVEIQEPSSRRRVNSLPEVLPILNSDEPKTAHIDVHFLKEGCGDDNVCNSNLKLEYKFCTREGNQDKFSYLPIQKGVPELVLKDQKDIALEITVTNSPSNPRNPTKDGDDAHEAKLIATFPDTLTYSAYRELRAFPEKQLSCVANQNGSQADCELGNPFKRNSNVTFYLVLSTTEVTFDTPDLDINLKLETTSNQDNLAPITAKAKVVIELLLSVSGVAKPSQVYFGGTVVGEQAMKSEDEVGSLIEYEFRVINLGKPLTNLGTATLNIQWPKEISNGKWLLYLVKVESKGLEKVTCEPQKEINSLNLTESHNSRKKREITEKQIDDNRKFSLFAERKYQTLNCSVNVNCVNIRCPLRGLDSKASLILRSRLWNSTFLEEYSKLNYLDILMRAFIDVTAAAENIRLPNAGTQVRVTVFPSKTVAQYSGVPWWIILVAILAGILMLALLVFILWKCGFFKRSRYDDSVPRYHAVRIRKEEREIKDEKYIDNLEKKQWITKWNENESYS
human α6β1 integrin transiently expressed on Expi293F cells, wild type, sequence (P05556 21-798, chain 2 of 2): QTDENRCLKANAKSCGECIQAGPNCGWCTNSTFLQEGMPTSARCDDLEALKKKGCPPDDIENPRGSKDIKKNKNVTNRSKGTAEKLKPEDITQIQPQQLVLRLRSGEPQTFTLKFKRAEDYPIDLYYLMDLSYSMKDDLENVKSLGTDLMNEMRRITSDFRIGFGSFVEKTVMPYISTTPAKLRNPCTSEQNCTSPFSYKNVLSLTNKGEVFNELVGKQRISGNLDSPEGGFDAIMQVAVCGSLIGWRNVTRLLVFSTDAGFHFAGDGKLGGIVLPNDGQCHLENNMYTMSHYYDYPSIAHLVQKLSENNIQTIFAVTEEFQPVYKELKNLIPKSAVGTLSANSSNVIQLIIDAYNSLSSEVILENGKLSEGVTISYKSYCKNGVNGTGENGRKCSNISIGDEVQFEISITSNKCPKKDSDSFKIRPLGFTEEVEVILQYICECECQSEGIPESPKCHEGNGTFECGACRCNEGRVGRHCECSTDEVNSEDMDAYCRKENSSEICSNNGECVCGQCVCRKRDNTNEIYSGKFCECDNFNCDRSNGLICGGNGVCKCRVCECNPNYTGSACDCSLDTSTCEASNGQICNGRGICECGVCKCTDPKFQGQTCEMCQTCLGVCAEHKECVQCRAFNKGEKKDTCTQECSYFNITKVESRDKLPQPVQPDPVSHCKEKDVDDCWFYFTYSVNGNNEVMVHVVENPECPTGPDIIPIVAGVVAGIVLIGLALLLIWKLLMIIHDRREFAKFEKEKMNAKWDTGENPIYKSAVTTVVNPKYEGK

α6β1 integrin on Expi293F cells, α6 D153A, sequence (chain, as listed by the source D153A, chain 1 of 2): as the sequence (chain, as listed by the source, chain 1 of 2) above, with D153A counted along it
α6β1 integrin on Expi293F cells, α6 D153A, sequence (P05556 21-798, chain 2 of 2): as the sequence (P05556 21-798, chain 2 of 2) above
α6β1 integrin on Expi293F cells, α6 X1-ΔC, sequence (P05556 whole entry, looked up, stated change not applied): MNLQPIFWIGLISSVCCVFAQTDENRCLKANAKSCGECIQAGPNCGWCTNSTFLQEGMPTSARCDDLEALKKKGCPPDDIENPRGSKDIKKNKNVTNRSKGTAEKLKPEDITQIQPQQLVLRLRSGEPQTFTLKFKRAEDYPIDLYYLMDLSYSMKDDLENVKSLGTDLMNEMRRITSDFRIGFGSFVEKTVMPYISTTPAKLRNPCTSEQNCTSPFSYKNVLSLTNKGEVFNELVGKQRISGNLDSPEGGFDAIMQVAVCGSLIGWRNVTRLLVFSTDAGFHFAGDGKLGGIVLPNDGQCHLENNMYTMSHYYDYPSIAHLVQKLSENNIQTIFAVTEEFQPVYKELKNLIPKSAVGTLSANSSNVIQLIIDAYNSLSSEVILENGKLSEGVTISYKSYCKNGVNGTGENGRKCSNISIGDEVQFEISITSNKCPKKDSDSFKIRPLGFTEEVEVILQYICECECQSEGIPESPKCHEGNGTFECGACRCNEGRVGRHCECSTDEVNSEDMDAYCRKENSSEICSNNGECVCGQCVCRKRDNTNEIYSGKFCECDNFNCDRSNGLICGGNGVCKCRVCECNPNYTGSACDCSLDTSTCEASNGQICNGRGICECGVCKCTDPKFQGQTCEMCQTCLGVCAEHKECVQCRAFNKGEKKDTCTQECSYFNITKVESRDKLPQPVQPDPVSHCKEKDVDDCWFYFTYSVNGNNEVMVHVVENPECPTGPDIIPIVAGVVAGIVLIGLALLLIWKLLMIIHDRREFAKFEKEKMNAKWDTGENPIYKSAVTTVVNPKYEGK
α6β1 integrin on Expi293F cells, α6 E219A, sequence (chain, as listed by the source E219A, chain 1 of 2): as the sequence (chain, as listed by the source, chain 1 of 2) above, with E219A counted along it
α6β1 integrin on Expi293F cells, α6 E219A, sequence (P05556 21-798, chain 2 of 2): as the sequence (P05556 21-798, chain 2 of 2) above
α6β1 integrin on Expi293F cells, α6 R157A, sequence (chain, as listed by the source R157A, chain 1 of 2): as the sequence (chain, as listed by the source, chain 1 of 2) above, with R157A counted along it
α6β1 integrin on Expi293F cells, α6 R157A, sequence (P05556 21-798, chain 2 of 2): as the sequence (P05556 21-798, chain 2 of 2) above
α6β1 integrin on Expi293F cells, α6 D205A, sequence (chain, as listed by the source D205A, chain 1 of 2): as the sequence (chain, as listed by the source, chain 1 of 2) above, with D205A counted along it
α6β1 integrin on Expi293F cells, α6 D205A, sequence (P05556 21-798, chain 2 of 2): as the sequence (P05556 21-798, chain 2 of 2) above
α6β1 integrin on Expi293F cells, α6 E221A, sequence (chain, as listed by the source E221A, chain 1 of 2): as the sequence (chain, as listed by the source, chain 1 of 2) above, with E221A counted along it
α6β1 integrin on Expi293F cells, α6 E221A, sequence (P05556 21-798, chain 2 of 2): as the sequence (P05556 21-798, chain 2 of 2) above

B1: trimeric fusion protein PA-sfGFP-tLM511 (complex)
chain 1: ENVERWQGQYEGLRGQDLGQAVLDAGHSVSTLEKTLPQLLAKLSILENRGVHNASLALSASIGRVRELIAQARGAASKVKVPMKFNGRSGVQLRTPRDLADLAAYTALKFYLQGPEPEPGQGTEDRFVMYMGSRQATGDYMGVSLRDKKVHWVYQLGEAGPAVLSIDEDIGEQFAAVSLDRTLQFGHMSVTVERQMIQETKGDTVAPGAEGLLNLRPDDFVFYVGGYPSTFTPPPLLRFPGYRGCIEMDTLNEEVVSLYNFERTFQLDTAVDRPCARSKSTGDPWLTDGSYLDGTGFARISFDSQISTTKRFEQELRLVSYSGVLFFLKQQSQFLCLAVQEGSLVLLYDFGAGLKKAVPLQPPPPLTSASKAIQVFLLGGSRKRVLVRVERATVYSVEQDNDLELADAYYLGGVPPDQLPPSLRRLFPTGGSVRGCVKGIKALGKYVDLKRLNTTGVSAGCTADLLVGRAMTFHGHGFLRLALSNVAPLTGNVYSGFGFHSAQDSALLYYRASPDGLCQVSLQQGRVSLQLLRTEVKTQAGFADGAPHYVAFYSNATGVWLYVDDQLQQMKPHRGPPPELQPQPEGPPRLLLGGLPESGTIYNFSGCISNVFVQRLLGPQRVFDLQQNLGSVNVSTGCAPALQAQTPGLGPRGLQATARKASRRSRQPARHPA
chain 2: not shown
chain 3: DTVDLNKLNEIEGTLNKAKDEMKVSDLDRKVSDLENEAKKQEAAIMDYNRDIEEIMKDIRNLEDIRKTLPSGCFNTPSIEKP
modifications: Mn2+; A cytoplasmic form assumed
The term Kd denotes the concentration at which binding is half-saturated. A lower Kd goes with a tighter complex. Regarding B1, the Kd in test [1] was 45.2 nM; in test [2], 32.5 nM; in test [3], 134 nM; in test [4] it was 60.1 nM; in test [5] it was 28.8 nM.

B2: trimeric fusion protein PA-sfGFP-tLM511 (complex)
chain 1: B1 chain 1
chain 2: not shown
chain 3: B1 chain 3
For the molecule B2, in test [6], the Kd turned out to be 127 nM.

B3: trimeric fusion protein PA-sfGFP-tLM511 (complex)
chain 1: B1 chain 1
chain 2: not shown
chain 3: B1 chain 3
modifications: assayed with 0.5 mM Mn2+; X1 variant without the 39-residue X2 insert (P23229 displayed = X1X2A; mature 988 = 1050 gives offset 62 after X2); A/B cytoplasmic form not given, A taken; alpha6 may be furin-cleaved; signal peptides removed
In turn, B3 showed a Kd in test [7] of 12.5 nM.
